This passage reports infectious particles formed in vitro in SPP1gp16.1−-gp17− extract with 20 µM purified gp16.1 added, against purified gp17; gp17 concentration and infectious particles formed in vitro in SPP1gp17− extract (tails with endogenous gp16.1) against 0.003–20 µM purified gp17; gp17 concentration results from PMC11099176.

Assay [1] deals with SPP1 tails lacking gp16.1 and gp17 (bacteriophage SPP1) (UniProt O48449).
Assay [2] deals with SPP1 tails carrying gp16.1 and lacking gp17 (bacteriophage SPP1) (UniProt O48449).

B1: gp17 of bacteriophage SPP1, purified (natural protein)
chain: MTWKLASRALQKATVENLESYQPLMEMVNQVTESPGKDDPYPYVVIGDQSSTPFETKSSFGENITMDFHVWGGTTRAEAQDISSRVLEALTYKPLMFEGFTFVAKKLVLAQVITDTDGVTKHGIIKVRFTINNN
As for B1, the infectious particles formed in vitro in SPP1gp16.1−-gp17− extract with 20 µM purified gp16.1 added, against purified gp17; gp17 concentration at the plateau in assay [1] was 0.2 µM. The same molecule had an infectious particles formed in vitro in SPP1gp17− extract (tails with endogenous gp16.1) against 0.003–20 µM purified gp17; gp17 concentration at the plateau in assay [2] of 6 µM.
